Experimental data published in patent US20100029702A1, “Method For Identification of Compound Having Anti-Anxiety Effect” (priority 2006, published 2010).

Legend:
[1] = molecular target: T1, protein encoded by ph01207 (Homo sapiens, UniProt O60241, DEL308-362); assay: Changes in intracellular Ca2+ concentration in HA-ph01207#10-6 cell strain (CHO-K1 stably expressing ph01207); assay type: cell-based; settings: peptide at final concentration 1 nM
T1 construct: expressed in transfected cells; host or cells: CHO-K1 (HA-ph01207#10-6, FERM BP-10101), T8HA-attR/pCINeo
T1 sequence (O60241 with tags, fused parts or gaps DEL308-362): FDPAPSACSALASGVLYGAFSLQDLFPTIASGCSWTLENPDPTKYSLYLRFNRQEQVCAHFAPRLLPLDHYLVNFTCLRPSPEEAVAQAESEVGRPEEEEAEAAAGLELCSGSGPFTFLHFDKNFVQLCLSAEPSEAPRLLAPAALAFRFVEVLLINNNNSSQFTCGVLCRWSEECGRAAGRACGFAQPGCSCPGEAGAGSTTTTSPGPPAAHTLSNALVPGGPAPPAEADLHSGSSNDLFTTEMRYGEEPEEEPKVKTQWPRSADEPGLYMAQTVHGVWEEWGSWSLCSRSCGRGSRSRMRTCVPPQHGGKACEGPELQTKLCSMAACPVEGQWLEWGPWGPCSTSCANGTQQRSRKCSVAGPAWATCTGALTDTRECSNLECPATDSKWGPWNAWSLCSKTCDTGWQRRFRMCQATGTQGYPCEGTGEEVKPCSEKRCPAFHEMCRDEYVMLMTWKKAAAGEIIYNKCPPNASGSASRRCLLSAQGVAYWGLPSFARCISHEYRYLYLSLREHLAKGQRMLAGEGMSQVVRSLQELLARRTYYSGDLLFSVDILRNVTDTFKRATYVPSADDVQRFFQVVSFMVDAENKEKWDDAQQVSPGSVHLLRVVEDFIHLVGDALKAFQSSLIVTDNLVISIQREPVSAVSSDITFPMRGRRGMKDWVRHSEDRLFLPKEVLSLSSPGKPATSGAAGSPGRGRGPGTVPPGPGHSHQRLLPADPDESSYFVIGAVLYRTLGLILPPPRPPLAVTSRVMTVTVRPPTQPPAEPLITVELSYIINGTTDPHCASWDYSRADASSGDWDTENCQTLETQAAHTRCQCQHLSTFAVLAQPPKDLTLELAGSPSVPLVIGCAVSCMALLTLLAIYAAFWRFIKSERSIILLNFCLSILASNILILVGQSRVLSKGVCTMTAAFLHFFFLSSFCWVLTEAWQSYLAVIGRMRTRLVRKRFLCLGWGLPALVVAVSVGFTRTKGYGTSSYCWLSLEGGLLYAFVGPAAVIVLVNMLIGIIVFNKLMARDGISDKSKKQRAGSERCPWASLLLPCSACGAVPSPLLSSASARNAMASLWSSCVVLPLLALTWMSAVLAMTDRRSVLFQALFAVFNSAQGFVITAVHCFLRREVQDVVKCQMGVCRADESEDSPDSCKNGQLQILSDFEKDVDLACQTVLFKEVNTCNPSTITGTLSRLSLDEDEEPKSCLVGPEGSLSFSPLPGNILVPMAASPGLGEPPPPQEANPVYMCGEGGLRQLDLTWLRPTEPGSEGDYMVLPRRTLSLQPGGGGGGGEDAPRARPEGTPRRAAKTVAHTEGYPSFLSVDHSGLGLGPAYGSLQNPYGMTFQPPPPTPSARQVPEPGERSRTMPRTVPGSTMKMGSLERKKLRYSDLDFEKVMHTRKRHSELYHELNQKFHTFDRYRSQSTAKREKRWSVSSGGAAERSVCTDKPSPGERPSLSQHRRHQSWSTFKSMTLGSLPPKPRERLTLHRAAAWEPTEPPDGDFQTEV
Description: Changes in the intracellular calcium (Ca^2+) concentration induced by CCK-8S (SEQ ID NO: 14), CCK-8NS, or CCK-4 were measured using the cell strains expressing ph01207 prepared in Example 2. The cell strains prepared in Example 2 were eight strains that expressed the protein encoded by ph01207 as FLAG-tag fusion proteins and four strains that expressed the protein encoded by ph01207 as HA-tag fusion proteins. Of these, the HA-ph01207#10-6 cell strain, a strain obtained by cloning one of the cell strains that stably expressed the protein encoded by ph01207 as HA-tag fusion proteins, was used in this example. CCK-8NS was a CCK octapeptide having the same amino acid sequence as that of CCK-8S (SEQ ID NO: 14), but a region from the C terminus to the seventh tyrosine residue was not sulfated. CCK-4 was a tetrapeptide comprising residues from the C terminus to the fourth amino acid of CCK-8S (SEQ ID NO: 14).
The specific method for measuring changes in the intracellular Ca^2+ concentration in the HA-ph01207#10-6 cell strain induced by CCK-8S (SEQ ID NO: 14) and the results are described below. The HA-ph01207#10-6 cell strain was seeded on a 96-well plate (a plate with a black wall and a transparent bottom) at a cell count of 2×10^4/100 μL medium/well and cultured at 37° C. in the presence of 5% CO2. As a medium, DMEM/F12 (Gibco) containing 10% fetal calf serum (Moregate) was used. On the following day, 50 μL of the medium was removed from each well, 50 μL of a loading buffer was added to each well, and the mixture was reacted at room temperature for 1.5 h, so that a fluorescent dye contained in the loading buffer should be taken up into the cell. The loading buffer was prepared by dissolving component A of the FLIPR Calcium 3 Assay Kit (Molecular Device) in a solution obtained by adding 0.1 mL of 500 mM probenecid (Sigma) to 9.9 mL of component B. After reaction, changes over time in the fluorescence intensity in each well after addition of CCK-8S (Peptide Institute, Inc.) were measured using the FLEX station (Molecular Device). Furthermore, similar measurement was performed for CCK-8NS (Peptide Institute, Inc.) and CCK-4 (Peptide Institute, Inc.). 0.52 mg of CCK-8S (SEQ ID NO: 14) was dissolved in 4.5 mL of 1% NaHCO3 (Wako) to prepare a solution having 0.1 mM concentration. 0.53 mg of CCK-8NS was dissolved in 0.50 mL of dimethyl sulfoxide (DMSO, Sigma), and then 4.50 mL of redistilled water H2O was added to prepare a solution having 0.1 mM concentration. 0.54 mg of CCK-4 was dissolved in 0.46 mL of DMSO, 4.09 mL of redistilled water was added to prepare a solution having 0.2 mM concentration. […]

CHO-K1 cell strain = assay: Changes in intracellular Ca2+ concentration in CHO-K1 host cell not transfected (negative control); assay type: cell-based, Chinese hamster; settings: CHO-K1 not transfected; peptide 1 nM (Example 5)
Description: The specific method for measuring changes in the intracellular Ca^2+ concentration in the HA-ph01207#10-6 cell strain induced by CCK-8S (SEQ ID NO: 14) and the results are described below. The HA-ph01207#10-6 cell strain was seeded on a 96-well plate (a plate with a black wall and a transparent bottom) at a cell count of 2×10^4/100 μL medium/well and cultured at 37° C. in the presence of 5% CO2. As a medium, DMEM/F12 (Gibco) containing 10% fetal calf serum (Moregate) was used. On the following day, 50 μL of the medium was removed from each well, 50 μL of a loading buffer was added to each well, and the mixture was reacted at room temperature for 1.5 h, so that a fluorescent dye contained in the loading buffer should be taken up into the cell. The loading buffer was prepared by dissolving component A of the FLIPR Calcium 3 Assay Kit (Molecular Device) in a solution obtained by adding 0.1 mL of 500 mM probenecid (Sigma) to 9.9 mL of component B. After reaction, changes over time in the fluorescence intensity in each well after addition of CCK-8S (Peptide Institute, Inc.) were measured using the FLEX station (Molecular Device). Furthermore, similar measurement was performed for CCK-8NS (Peptide Institute, Inc.) and CCK-4 (Peptide Institute, Inc.). 0.52 mg of CCK-8S (SEQ ID NO: 14) was dissolved in 4.5 mL of 1% NaHCO3 (Wako) to prepare a solution having 0.1 mM concentration. 0.53 mg of CCK-8NS was dissolved in 0.50 mL of dimethyl sulfoxide (DMSO, Sigma), and then 4.50 mL of redistilled water H2O was added to prepare a solution having 0.1 mM concentration. 0.54 mg of CCK-4 was dissolved in 0.46 mL of DMSO, 4.09 mL of redistilled water was added to prepare a solution having 0.2 mM concentration. CCK-8S (SEQ ID NO: 14), CCK-8NS, and CCK-4 were diluted in phosphate-buffered physiological saline (PBS) to prepare 5 nM solutions, and 25 μL each was added (final concentration 1 nM) to perform measurement. As a positive control for including an increase in the intracellular Ca^2+ concentration, A23187 (Calbiochem) was used at a final concentration of 10 μM. As a negative control, the CHO-K1 cell strain used to prepare the HA-ph01207#10-6 cell strain as a host was used. Since the CHO-K1 cell strain was not transfected with the ph01207-expressing vector, the ph01207 gene product was not expressed.
Changes in the intracellular calcium (Ca^2+) concentration induced by CCK-8S were measured by a method similar to the method described in Example 5 using the 7tmHR stably-expressing strain and the hk01941 stably-expressing strain prepared in Example 7. As a control, a host cell not transfected with the 7tmHR-expressing vector or the hk01941-expressing vector was also used.
Cells were seeded in a 96-well plate (a plate with a black wall and a transparent bottom) at a cell count of 3×10^4/100 μL of medium/well and cultured overnight at 37° C. in a 5% CO2 incubator. On the following day, 50 μL of the medium was removed from each well, […] of a loading buffer was added to each well, and the mixture was reacted at room temperature for 1 h, so that a fluorescent dye contained in the loading buffer was taken up into the cell. The loading buffer was prepared by a method similar to the method described in Example 5. After reaction, changes over time in the fluorescence intensity in each well after addition of CCK-8S were measured using the FLEX station (Molecular Device). CCK-8S was used at a final concentration of 10 pM to 1 μM. Furthermore, as a positive control of the assay, A23187 was used at a final concentration of 20 μM.
Cells were seeded in a 96-well plate (a plate with a black wall and a transparent bottom) at a cell count of 3×10^4/100 μL of medium/well and cultured overnight at 37° C. in a 5% CO2 incubator. […]

Substance | Change in intracellular Ca2+ concentration (fluorescence intensity) [1] | Change in intracellular Ca2+ concentration (fluorescence intensity) (CHO-K1 cell strain)
CCK-4: tetrapeptide comprising residues from the C terminus to the fourth amino acid of CCK-8S | did not increase | not increased
CCK-8 nonsulfated form [CCK-8NS] | did not increase | not increased
